# Laboratory results reported in US20210252150A1 (VANDERBILT UNIVERSITY, published 2021).
# Read-outs that look alike come from different tables or passages of the source.
# Legend:
# [1] = biological target: HA of A/duck/Czechoslovakia/1956 (H4); experiment: ELISA, recombinant HA
# [2] = biological target: HA of A/duck/Czechoslovakia/1956 (H4); experiment: ELISA, recombinant HA; remark: listed apart in the source
# [3] = biological target: HA of A/Singapore/1/1957 (H2) (influenza A virus (H2), UniProt Q67333 16-525)
# [4] = biological target: HA of A/Hong Kong/1/1968 (H3N2) (influenza A virus (H3N2), UniProt Q91MA7 17-530)
# [5] = biological target: T1, HA of A/California/04/2009 (H1N1) (influenza A virus (H1N1), UniProt P26140 18-529); experiment: ELISA, recombinant HA
# [6] = biological target: T1, HA of A/California/04/2009 (H1N1); experiment: ELISA, recombinant HA; remark: listed apart in the source
# [7] = biological target: T1, HA of A/California/04/2009 (H1N1); experiment: BLI, Fab on immobilized biotinylated HA
# [8] = biological target: T1, HA of A/California/04/2009 (H1N1); experiment: BLI, Fab on immobilized biotinylated HA; remark: listed apart in the source
# [9] = biological target: T1, HA of A/California/04/2009 (H1N1); experiment: ELISA (highest dilution tested 1/50,000)
binder,measurement,setting,value
"FluA-20 (hybridoma-produced IgG) (antibody, V domains shown) VH: QVQLQESGPGLVKPSETLSLTCSVSGVSVTSDIYYWTWIRQPPGKGLEWIGYIFYNGDTNYNPSLKSRVTMSIDTSKNEFSLRLTSVTAADTAVYFCARGTEDLGYCSSGSCPNHWGQGTLVTVSS VL: DIQMTQSPSSLSASIGDRVTITCRPSQNIRSFLNWFQHKPGKAPKLLIYAASNLQSGVPSRFSGSGSGTEFTLTIRSLQPEDFATYYCQQSYNTPPTFGQGTKVEIK",EC50,[1],0.013 µg/mL
same,EC50,[2],0.007 µg/mL
"rFluA-20 heavy chain mutant Y100aA (antibody, V domains shown) VH: QVQLQESGPGLVKPSETLSLTCSVSGVSVTSDIYYWTWIRQPPGKGLEWIGYIFYNGDTNYNPSLKSRVTMSIDTSKNEFSLRLTSVTAADTAVYFCARGTEDLGACSSGSCPNHWGQGTLVTVSS VL: DIQMTQSPSSLSASIGDRVTITCRPSQNIRSFLNWFQHKPGKAPKLLIYAASNLQSGVPSRFSGSGSGTEFTLTIRSLQPEDFATYYCQQSYNTPPTFGQGTKVEIK",EC50 fold over wild-type rFluA-20,[3],> 100 fold
same,EC50,[4],0.07 µg/mL
"rFluA-20 heavy chain mutant E97A (antibody, V domains shown) VH: QVQLQESGPGLVKPSETLSLTCSVSGVSVTSDIYYWTWIRQPPGKGLEWIGYIFYNGDTNYNPSLKSRVTMSIDTSKNEFSLRLTSVTAADTAVYFCARGTADLGYCSSGSCPNHWGQGTLVTVSS VL: DIQMTQSPSSLSASIGDRVTITCRPSQNIRSFLNWFQHKPGKAPKLLIYAASNLQSGVPSRFSGSGSGTEFTLTIRSLQPEDFATYYCQQSYNTPPTFGQGTKVEIK",EC50,[3],0.13 µg/mL
same,EC50,[4],0.07 µg/mL
"rFluA-20 heavy chain mutant T96A (antibody, V domains shown) VH: QVQLQESGPGLVKPSETLSLTCSVSGVSVTSDIYYWTWIRQPPGKGLEWIGYIFYNGDTNYNPSLKSRVTMSIDTSKNEFSLRLTSVTAADTAVYFCARGAEDLGYCSSGSCPNHWGQGTLVTVSS VL: DIQMTQSPSSLSASIGDRVTITCRPSQNIRSFLNWFQHKPGKAPKLLIYAASNLQSGVPSRFSGSGSGTEFTLTIRSLQPEDFATYYCQQSYNTPPTFGQGTKVEIK",EC50,[3],0.07 µg/mL
same,EC50,[4],0.1 µg/mL
"rFluA-20 heavy chain mutant Y34A (antibody, V domains shown) VH: QVQLQESGPGLVKPSETLSLTCSVSGVSVTSDIAYWTWIRQPPGKGLEWIGYIFYNGDTNYNPSLKSRVTMSIDTSKNEFSLRLTSVTAADTAVYFCARGTEDLGYCSSGSCPNHWGQGTLVTVSS VL: DIQMTQSPSSLSASIGDRVTITCRPSQNIRSFLNWFQHKPGKAPKLLIYAASNLQSGVPSRFSGSGSGTEFTLTIRSLQPEDFATYYCQQSYNTPPTFGQGTKVEIK",EC50,[3],0.11 µg/mL
same,EC50,[4],0.07 µg/mL
"rFluA-20 light chain mutant N53A (antibody, V domains shown) VH: QVQLQESGPGLVKPSETLSLTCSVSGVSVTSDIYYWTWIRQPPGKGLEWIGYIFYNGDTNYNPSLKSRVTMSIDTSKNEFSLRLTSVTAADTAVYFCARGTEDLGYCSSGSCPNHWGQGTLVTVSS VL: DIQMTQSPSSLSASIGDRVTITCRPSQNIRSFLNWFQHKPGKAPKLLIYAASALQSGVPSRFSGSGSGTEFTLTIRSLQPEDFATYYCQQSYNTPPTFGQGTKVEIK",EC50,[3],0.16 µg/mL
same,EC50,[4],0.06 µg/mL
"rFluA-20 (recombinant FluA-20 IgG) (antibody, V domains shown) VH: QVQLQESGPGLVKPSETLSLTCSVSGVSVTSDIYYWTWIRQPPGKGLEWIGYIFYNGDTNYNPSLKSRVTMSIDTSKNEFSLRLTSVTAADTAVYFCARGTEDLGYCSSGSCPNHWGQGTLVTVSS VL: DIQMTQSPSSLSASIGDRVTITCRPSQNIRSFLNWFQHKPGKAPKLLIYAASNLQSGVPSRFSGSGSGTEFTLTIRSLQPEDFATYYCQQSYNTPPTFGQGTKVEIK",EC50,[1],0.018 µg/mL
same,EC50,[2],0.007 µg/mL
"UCA (antibody, V domains shown) VH: QVQLQESGPGLVKPSETLSLTCTVSGGSVSSGSYYWSWIRQPPGKGLEWIGYIYYSGSTNYNPSLKSRVTISVDTSKNQFSLKLSSVTAADTAVYYCARGTEDLGYCSGGSCPNHWGQGTLVTV VL: not shown",EC50,[1],0.025 µg/mL
same,EC50,[5],0.14 µg/mL
same,EC50,[2],0.013 µg/mL
same,EC50,[6],0.051 µg/mL
"FluA-20 UCA Fab (unmutated common ancestor of FluA-20) (Fab, V domains shown) VH: QVQLQESGPGLVKPSETLSLTCTVSGGSVSSGSYYWSWIRQPPGKGLEWIGYIYYSGSTNYNPSLKSRVTISVDTSKNQFSLKLSSVTAADTAVYYCARGTEDLGYCSGGSCPNHWGQGTLVTV VL: not shown",Kd,[7],1430 nM
same,Kd,[8],1430 nM
"H5.31 (antibody, V domains shown) VH: EVQLVQSGGGLVQPGGSLRLSCEASRFTSSSYWITWVRQAPGKGLEWVANIKQDGSEKYFVDSVKGRFTISRDNASNSLYLQMSSLRAEDTAVYYCARGFLERLLLGRQGAYYYGMDVWGQGTTVTVSS VL: DIQMTQSPSSLSASVGDRVTMTCRASQSISSSLNWYQQKPGKAPKLLIYAASNLQSGVPSRFSGSGSGTDFTLTISSLQPEDFATYYCQQSYTMPPELTFGGGTKVQIK",EC50,[9],0.045 µg/mL
"H5.28 (antibody, V domains shown) VH: EVQLVESGGGLVQPGGSLRLSCAASGFTFSTYWMTWVRQAPGKGLEWVANINQDGGEKYFVDSVKGRFTISRDNAKNSLFLQMNTLRAEDTAVYYCARGFLERLLLGRQGAYYYGMDVWGQGTTVTVSS VL: DIQMTQSPSSLSASVGDRVSMTCRASQIISSSLNWYQQKPGKAPKLLIYAASNLQSGVPSRFSGSGSGTDFTLTISSLQPEDFATYYCQQSYSTPPELTFGGGTKVEIK",EC50,[9],0.074 µg/mL
